Data as given in patent publication US9333268B2, “Methods of treatment with arginine deiminase” (Polaris Group, priority 2012, dated 2016).

What was measured:
[1] = system: ASS-negative AML lines; experiment: Viability of AML cell lines treated with ADI-PEG 20; type: cell-based
Method: (§1) In this example, it was determined whether ASS negativity would predict for the efficacy of pegylated arginine deiminase (ADI-PEG 20) using AML cell lines and primary AML samples. A lack of ASS protein was identified in three of seven leukemic cell lines (K562, Kasumi and KG-1) and in all nine samples from patients with cytogenetically normal and abnormal karotype AML. Methylation of the ASS promoter correlated with reduced levels of ASS mRNA and absence of ASS expression.
(§2) Primary ASS-negative AML samples with good engraftment in NOD/SCID mice have been identified and studies of the efficacy of ADI-PEG 20 using this primary AML xenograft model have begun. Based on the results described herein and the potential efficacy with low toxicity of arginine deprivation in humans, a phase II trial of ADI-PEG 20 has been planned in patients with relapsed AML.

[2] = system: ASS-positive control lines, Fujioka and U937; experiment: as above; type: cell-based
Method: as §1, §2

[3] = system: SK-LC-13; experiment: Western blot of autophagy-related protein LC3-II; type: cell-based, human; details: 24 hour incubation
Excerpt: Following washing, the membranes were then probed with the appropriate secondary antibody before proteins were finally visualized using ECL reagent (Perkin-Elmer, Fremont Calif., USA).
An assay for the formation of the autophagy-related protein LC3-II assessed if treatment with ADI-PEG 20 was able to induce cellular autophagy in SCLC. […] Chloroquine is a known inhibitor of autophagy that disrupts normal lysosomal functions, and thus results in an increase in the cellular level of LC3-II.

[4] = system: SK-LC-13 cells; experiment: FACS analysis of apoptosis by sub-G1 DNA content (propidium iodide); type: cell-based, human
Method: Apoptosis was measured by FACS of propidium-iodide-stained cells as detailed by Riccardi et al (Riccardi and Nicoletti, Nat Protoc 1(3):1458-1461, 2006). Cells were plated in 24-well plates and treated with ADI-PEG 20 for […]. Cells were then harvested, washed and fixed in 70% ethanol. DNA was then stained using 20 μg ml^−1 propidium iodide containing 10 μgml^−1 DNAse-free RNAse A (Sigma-Aldrich). Cells were then read on a BD FACSCalibur (BD Biosciences) and analyzed using Flow Jo Software (Tree Star, Ashland, Oreg., USA).
In order to determine the possible mechanism of the antiproliferative effects of ADI-PEG 20 a FACS analysis of apoptosis by sub-G1 DNA content was performed. Cells were treated for 72 h before the analysis was performed.

[5] = system: SK-LC-13 xenografts; experiment: Moderately sized SK-LC-13 SCLC xenografts in BALB/c-nude mice; type: in vivo
Method: (§3) The activity of ADI-PEG 20 was also assessed in mice bearing ASS-positive NCI-H69 SCLC xenografts. Small cell lung cancer xenografts were established in female BALB/c-nude mice, 3-4 weeks of age weighing ˜20 g (Charles River Labs, Wilmington, Mass., USA). To establish the tumors, 10×10^6 cells in media were mixed 1:1 with Matrigel High Concentration (BD Biosciences) and injected subcutaneously in the abdominal area of the mice. Tumor growth was regularly measured and tumor volume calculated using the formula (TV=(length×width^2)/2). All animal studies were approved by the MSKCC Institutional Animal Care and Use Committee. Mice were euthanized when tumors reached an approximate volume of 1,000 mm^3.
(§4) The anti-tumor efficacy of ADI-PEG 20 was simultaneously assessed in mice bearing either moderate or large SK-LC-13 SCLC xenografts. In the first study, treatment was initiated once tumors had reached an average size of 125 mm^3. In the large xenograft study, treatment was initiated once tumors had reached an average size of 500 mm^3. Arginine deiminase-PEG20 was administered at doses of 1, 2 and 5 IU per animal once every 5 days for 20 days (five doses). To assess the effect of sustained dosing, further groups (n=5) at all dose levels received continued administration of ADI-PEG 20 every 5 days until tumors progressed to the 1,000 mm^3 size limit. Additionally, the efficacy of ADI-PEG 20 was assessed in mice bearing ASS-positive NCI-H69 xenografts. Here, mice received five doses of 2 IU ADI-PEG 20 for 20 days once tumor had reached an average size of 150 mm^3. Arginine deiminase-PEG20 was administered by intraperitoneal injection in all studies. The specific activity of ADI-PEG 20 used in these studies is 9 IU mg^−1 of protein. Thus, 1 IU of ADI-PEG 20 per 20 g mouse is equivalent to 160 IU m^−2.
(§5) Efficacy of ADI-PEG 20 treatment in vivo was assessed by comparing means of control and treatment groups using unpaired two-tailed t-tests at the termination of control groups using GraphPad Prism (Version 5.0, GraphPad Software Inc., La Jolla, Calif., USA).

[6] = system: SK-LC-13 xenografts; experiment: Large SK-LC-13 SCLC xenografts in BALB/c-nude mice; type: in vivo
Method: as §3, §4, §5

[7] = Serum ADI-PEG 20 levels by ELISA; type: in vivo, mice
Method: (§6) In order to determine the effect of ADI-PEG 20 treatment on systemic arginine levels, mice sera were analyzed using high-performance liquid chromatography (HPLC). L-arginine and L-citrulline were resolved with a Pickering Laboratories PCX 5200 post-column derivatization instrument (Pickering Laboratories, Mountain View, Calif., USA) at 39° C. reaction temperature and a fluorescence detector. […] Total ADI-PEG 20 levels were measured by ELISA, as described previously (Holtsberg et al, J Control Release 80(1-3):259-271, 2002).

[8] = system: L-arginine and L-citrulline; experiment: Serum arginine and citrulline by HPLC; type: in vivo, mice
Method: as §6

[9] = Specific activity of ADI-PEG 20; type: biochemical
Method: as §4

B1: ADI-PEG 20: arginine deiminase (ADI) formulated with PEG of 20,000 m.w. (protein)
chain: MSVFDSKFNGIHVYSEIGELETVLVHEPGREIDYITPARLDELLFSAILESHDARKEHQSFVKIMKDRGINVVELTDLVAETYDLASKAAKEEFIETFLEETVPVLTEANKEAVRAFLLSKPTHEMVEFMMSGITKYELGVESENELIVDPMPNLYFTRDPFASVGNGVTIHFMRYIVRRRETLFARFVFRNHPKLVKTPWYYDPAMKMSIEGGDVFIYNNETLVVGVSERTDLDTITLLAKNIKANKEVEFKRIVAINVPKWTNLMHLDTWLTMLDKNKFLYSPIANDVFKFWDYDLVNGGAEPQPQLNGLPLDKLLASIINKEPVLIPIGGAGATEMEIARETNFDGTNYLAIKPGLVIGYDRNEKTNAALKAAGITVLPFHGNQLSLGMGNARCMSMPLSRKDVKW
viability [1]: reduced the viability | viability (response to drug-induced arginine deprivation) [2]: resistant | cellular level of LC3-II [3]: clear increase in the detectable cellular level of the protein | cells in apoptosis (sub-G1 DNA content) ([4]; 1.0 mIU ml^−1, 72 h): ~6% | cells in apoptosis (sub-G1 DNA content) ([4]; 10 mIU ml^−1, 72 h): ~16% | tumor growth relative to control mice ([5]; 1, 2 and 5 IU per animal every 5 days, intraperitoneal): significant and dose-dependent reduction in tumor growth | mean tumor volumes, short vs continued dosing ([5]; 1 IU (P=0.251)): not significantly different | mean tumor volumes, short vs continued dosing ([5]; 2 IU (P=0.084)): not significantly different | tumor size, continued dosing vs dosing for only 20 days ([5]; 5 IU every 5 days, at completion of the study (P=0.0063)): significantly smaller | mean tumor volume of control mice compared with ADI-PEG 20-treated groups ([5]; day 33, regardless of dose or schedule (P>0.0001)): significantly larger | tumor growth ([6]; 1, 2 and 5 IU, tumors 473.4±161.0 mm^3 at start): dose-dependent inhibition of tumor growth | tumor volume relative to control mice ([6]; 1 IU, continued treatment, day 32 (P=0.007)): significantly reduce the tumor volume | tumor volume, continued relative to short-course treatment ([6]; 1 IU, day 39): moderately significant (P=0.26) reduction in tumor volume | tumor size relative to control mice ([6]; 1 IU, short-course, day 32 (P=0.07)): did not result in a statistical significant reduction | tumor volume relative to untreated controls ([6]; 2 IU, continued (P=0.0007)): significant reduction of tumor volume | tumor volume relative to untreated controls ([6]; 2 IU, short (P=0.004)): significant reduction of tumor volume | responses, continued dosing relative to short-course ([6]; 2 and 5 IU): did not significantly improve responses | tumor volume relative to untreated controls ([6]; 5 IU, continued (P=0.0001)): significant reduction of tumor volume | tumor volume relative to untreated controls ([6]; 5 IU, short (P=0.0003)): significant reduction of tumor volume | ADI-PEG 20 serum levels after end of dosing ([7]; administered only up to day 20): return to baseline levels by day 40 | ADI-PEG 20 serum levels ([7]; days 0, 12, 40, 1, 2, 5 IU): dose dependent | citrulline levels ([8]; 1, 2, 5 IU): rose in a dose-dependent relationship to arginine | serum arginine after end of dosing ([8]; 20 days after the last dose (day 40)): returned to normal levels | citrulline levels ([8]; continued dosing, 2 and 5 IU): Little increase in citrulline levels | arginine serum levels ([8]; extended dosing, 1 IU): below the limits of detection | citrulline levels ([8]; extended dosing, 1 IU): increased with extended dosing | serum arginine ([8]; short course of treatment): only temporarily depleted serum arginine | specific activity [9]: 9 IU mg^−1 of protein
